From publication PMC9284427 (The Journal of Cell Biology, 2022)
Numbering of substitutions follows the chain as printed. In names and notes the source's numbering stands. Like-named read-outs stand apart in the source and are kept apart here. Values belong to the binder of their own block, whether it stands above or below them.

T1: mouse JIP3[186-505] (mouse, UniProt Q9ESN9-5 186-505)
T1 sequence (looked up): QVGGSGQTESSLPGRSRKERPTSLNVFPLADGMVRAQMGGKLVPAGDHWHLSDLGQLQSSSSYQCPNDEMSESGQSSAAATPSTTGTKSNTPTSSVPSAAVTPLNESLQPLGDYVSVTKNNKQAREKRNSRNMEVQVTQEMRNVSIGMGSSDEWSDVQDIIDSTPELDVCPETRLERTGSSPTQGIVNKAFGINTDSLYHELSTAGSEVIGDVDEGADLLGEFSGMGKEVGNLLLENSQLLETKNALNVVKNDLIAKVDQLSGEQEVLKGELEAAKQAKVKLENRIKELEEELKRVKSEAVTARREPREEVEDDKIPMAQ

T2: full-length RILP (human, UniProt Q96NA2-1 1-401)
T2 sequence (looked up): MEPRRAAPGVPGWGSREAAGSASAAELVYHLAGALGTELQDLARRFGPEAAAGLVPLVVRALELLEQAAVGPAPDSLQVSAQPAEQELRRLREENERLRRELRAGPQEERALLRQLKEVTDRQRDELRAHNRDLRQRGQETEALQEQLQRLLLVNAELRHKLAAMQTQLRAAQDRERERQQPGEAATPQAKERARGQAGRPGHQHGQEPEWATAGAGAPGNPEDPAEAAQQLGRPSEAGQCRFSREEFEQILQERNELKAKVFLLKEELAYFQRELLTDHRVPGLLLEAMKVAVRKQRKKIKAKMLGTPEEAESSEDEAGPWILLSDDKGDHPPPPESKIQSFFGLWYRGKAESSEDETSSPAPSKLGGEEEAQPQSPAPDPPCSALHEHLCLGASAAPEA

B1: RILP[1-106] (domain or fragment, human, UniProt Q96NA2-1 1-106, looked up)
chain: MEPRRAAPGVPGWGSREAAGSASAAELVYHLAGALGTELQDLARRFGPEAAAGLVPLVVRALELLEQAAVGPAPDSLQVSAQPAEQELRRLREENERLRRELRAGP
B2: GST-tagged KLC1[185-501] (domain or fragment, human, UniProt Q07866-1 185-501, looked up)
chain: DDPGQGIQQQHSSAAAAAQQGGYEIPARLRTLHNLVIQYASQGRYEVAVPLCKQALEDLEKTSGHDHPDVATMLNILALVYRDQNKYKDAANLLNDALAIREKTLGKDHPAVAATLNNLAVLYGKRGKYKEAEPLCKRALEIREKVLGKDHPDVAKQLNNLALLCQNQGKYEEVEYYYQRALEIYQTKLGPDDPNVAKTKNNLASCYLKQGKFKQAETLYKEILTRAHEREFGSVDDENKPIWMHAEEREECKGKQKDGTSFGEYGGWYKACKVDSPTVTTTLKNLGALYRRQGKFEAAETLEEAAMRSRKQGLDNV
B3: GST::DLIC1[388-523] (domain or fragment, human, UniProt Q9Y6G9 388-523, looked up)
chain: PTAAGRPVDASPRVPGGSPRTPNRSVSSNVASVSPIPAGSKKIDPNMKAGATSEGVLANFFNSLLSKKTGSPGGPGVSGGSPAGGAGGGSSGLPPSTKKSGQKPVLDVHAELDRITRKPVTVSPTTPTSPTEGEAS
B4: JIP3[1-108] (domain or fragment, human, UniProt Q9UPT6-1 1-108, looked up)
chain: MMEIQMDEGGGVVVYQDDYCSGSVMSERVSGLAGSIYREFERLIHCYDEEVVKELMPLVVNVLENLDSVLSENQEHEVELELLREDNEQLLTQYEREKALRRQAEEKF
B5: MBP-tagged JIP3[1-108] (domain or fragment, human, UniProt Q9UPT6-1 1-108, looked up)
chain: B4 chain
B6: JIP3[1-108] V60Q (domain or fragment, human, UniProt Q9UPT6-1 1-108, looked up)
chain: B4 chain with V60Q
B7: MBP::UNC-16[1-120] (domain or fragment, C. elegans, UniProt P34609-1 1-120, looked up)
chain: MACNLSPVNEMADSITSSTPSEIVYGGPGSPDEHRTMSDKVQTMASAIYRELETMIKVHGEDGVKTLMPLVVNVLEALDLAYLERDEQTAELEMLKEDNEQLQTQYEREKALRKQTEQKY
B8: GST::DLI-1[369-442] (domain or fragment, C. elegans, UniProt G5ED34 369-442, looked up)
chain: TTAAPKPRTMQEEPTDKDSPLANFFSNLLNKDKPSKVSSPSTVSQPMDAAATQAQLDRLLKSAQSPKPQPRDSD
B9: MBP::UNC-16[1-120] V72Q (domain or fragment, C. elegans, UniProt P34609-1 1-120, looked up)
chain: B7 chain with V72Q
B10: JIP4[1-103] (domain or fragment, human, UniProt O60271-1 1-103, looked up)
chain: MELEDGVVYQEEPGGSGAVMSERVSGLAGSIYREFERLIGRYDEEVVKELMPLVVAVLENLDSVFAQDQEHQVELELLRDDNEQLITQYEREKALRKHAEEKF

Tests used:
GST::DLIC1[388-523] = target: B3; experiment: pull-down
mouse JIP3[186-505] = target: T1, mouse JIP3[186-505]; experiment: pull-down
full-length RILP = target: T2, full-length RILP; experiment: pull-down
AUC = target: the molecule itself; experiment: AUC
DLIC1[388-523] = DLIC1[388-523] (human, UniProt Q9Y6G9 388-523); experiment: ITC
GST::KIF5C[807-956] [1] = target: T3, GST::KIF5C[807-956] (mouse, UniProt P28738 807-956); experiment: pull-down
GST::KIF5C[807-956] [2] = target: T3, GST::KIF5C[807-956]; experiment: pull-down; remark: listed apart in the source
RILP[1-106] = target: B1; experiment: SEC
UNC-116[675-815] = UNC-116[675-815] (C. elegans, UniProt P34540 675-815); experiment: pull-down
MBP::UNC-16[1-120] = target: B7; experiment: pull-down
MBP-tagged JIP3[1-108] = target: B5; experiment: pull-down

T3 sequence (P28738 807-956): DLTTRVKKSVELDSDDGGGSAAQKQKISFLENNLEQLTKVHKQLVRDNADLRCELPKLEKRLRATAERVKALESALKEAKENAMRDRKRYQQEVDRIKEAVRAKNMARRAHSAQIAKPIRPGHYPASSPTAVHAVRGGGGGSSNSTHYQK
Sequence of UNC-116[675-815] (P34540 675-815): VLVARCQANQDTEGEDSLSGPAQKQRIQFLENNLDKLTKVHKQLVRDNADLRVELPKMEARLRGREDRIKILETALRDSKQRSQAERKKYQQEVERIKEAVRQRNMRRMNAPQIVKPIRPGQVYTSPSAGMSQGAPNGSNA

Binder: B1
binding result (GST::DLIC1[388-523]): binds

Binder: B2
binding result (mouse JIP3[186-505]): binds

Binder: B3
binding result (full-length RILP): binds

Binder: B4
stoichiometry N (AUC): 2
Kd (DLIC1[388-523]): ~1000 nM
stoichiometry N (DLIC1[388-523]): 2 DLIC1-C molecules per RH1 dimer
binding result (GST::KIF5C[807-956] [1]): binds

Binder: B5
binding result (GST::KIF5C[807-956] [2]): binds

Binder: B6
stoichiometry N (AUC): 2
binding result (GST::KIF5C[807-956] [1]): binds

binding result (RILP[1-106]): binds
Binder: SEGVLANFFNSLLSKK (domain or fragment, human) [DLIC1[440-455]]

Binder: B7
binding result (UNC-116[675-815]): binds

Binder: B8
binding result (MBP::UNC-16[1-120]): binds

Binder: B9
binding result (UNC-116[675-815]): binds

binding result (MBP-tagged JIP3[1-108]): binds
Binder: NMKAGATSEGVLANFFNSLLSKKTGS (peptide, UniProt Q9Y6G9 433-458, looked up) [DLIC-C helix 1 peptide (residues 433-458)]

Binder: B10
stoichiometry N (AUC): 2
Kd (DLIC1[388-523]): ~4000 nM
stoichiometry N (DLIC1[388-523]): 2 DLIC1-C molecules per RH1 dimer
